In this assay the target is CR3022 IgG antibody.

For “anti-IgG Nanobody (Chromotek Nano-Secondary alpaca anti-human IgG) (VHH)”, the assay signal (TR-FRET ratio) (TR-FRET ratio) worked out at 0.6.

As to anti-IgG antibody (Bethyl, A80-104A), the assay signal (TR-FRET ratio) (TR-FRET ratio) came to 0.25.

The values above are taken from patent US20230341394A1.
